In test [1] the target is T1, 原核表达的TF-FGL1融合蛋白 (human FGL1 Leu23-Ile312 fused to trigger factor, pCold TF, expressed in E. coli BL21(DE3)) (human).
T1 construct: also called 原核表达的FGL1蛋白; TF-FGL1蛋白
T1 chain: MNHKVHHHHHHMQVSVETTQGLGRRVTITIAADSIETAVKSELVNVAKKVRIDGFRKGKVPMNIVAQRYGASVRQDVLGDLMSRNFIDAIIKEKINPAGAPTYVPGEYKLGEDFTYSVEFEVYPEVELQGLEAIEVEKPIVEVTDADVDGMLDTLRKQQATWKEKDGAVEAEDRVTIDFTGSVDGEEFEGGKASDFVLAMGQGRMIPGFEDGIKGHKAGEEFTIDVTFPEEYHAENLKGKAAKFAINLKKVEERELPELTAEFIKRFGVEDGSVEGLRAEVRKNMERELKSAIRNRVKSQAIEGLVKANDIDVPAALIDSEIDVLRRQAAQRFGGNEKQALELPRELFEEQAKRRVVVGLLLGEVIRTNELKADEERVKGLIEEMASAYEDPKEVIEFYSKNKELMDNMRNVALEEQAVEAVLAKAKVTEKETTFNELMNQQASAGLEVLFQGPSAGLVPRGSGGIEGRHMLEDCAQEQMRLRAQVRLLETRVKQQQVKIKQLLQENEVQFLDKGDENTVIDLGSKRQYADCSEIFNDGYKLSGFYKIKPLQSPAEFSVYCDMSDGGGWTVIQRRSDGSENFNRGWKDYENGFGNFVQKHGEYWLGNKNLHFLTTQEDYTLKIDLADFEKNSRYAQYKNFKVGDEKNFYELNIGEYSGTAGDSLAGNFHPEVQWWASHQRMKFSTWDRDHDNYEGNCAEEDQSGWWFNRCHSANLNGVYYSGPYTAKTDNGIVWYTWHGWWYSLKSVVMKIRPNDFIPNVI
The test is described as follows: indirect ELISA, antigen coated at 0.5 µg/mL, purified antibody 0.5 µg/mL. Background: ELISA stands for enzyme-linked immunosorbent assay.

Test [2] deals with T2, 真核表达的人FGL1重组蛋白 (human FGL1 Leu23-Ile312 with C-terminal 6xHis, expressed in 293F cells) (human, UniProt Q08830 23-312).
T2 construct: also called 真核表达的FGL1蛋白; 真核表达的人FGL1蛋白
T2 sequence: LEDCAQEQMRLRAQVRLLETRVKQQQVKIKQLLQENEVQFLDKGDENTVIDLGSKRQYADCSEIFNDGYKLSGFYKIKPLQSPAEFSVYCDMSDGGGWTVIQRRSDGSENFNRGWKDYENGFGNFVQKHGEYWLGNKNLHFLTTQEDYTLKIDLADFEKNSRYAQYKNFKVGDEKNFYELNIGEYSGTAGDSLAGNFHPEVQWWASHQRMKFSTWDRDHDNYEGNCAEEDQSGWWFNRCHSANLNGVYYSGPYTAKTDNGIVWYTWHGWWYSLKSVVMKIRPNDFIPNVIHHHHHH
The test is described as follows: indirect ELISA screen, hybridoma supernatant on coated human FGL1 recombinant protein (0.5 µg/mL).

Test [3] concerns the target T2, 真核表达的人FGL1重组蛋白 (human FGL1 Leu23-Ile312 …). The test is described as follows: indirect ELISA, antigen coated at 0.5 µg/mL, purified antibody 0.5 µg/mL.

B1: 克隆号为MJ9-1的杂交瘤细胞(CGMCC No.23015)分泌的抗FGL1单克隆抗体 (antibody, mouse IgG1, kappa, V domains shown)
VH: EVQLVESGGGLVKPGGSLKLSCAASGFTFSDGYMYWVRQTPEKRLEWVATISDGGSGTYYPDSVKGRFTISRDNAKNNLYLQMSSLKSEDTAMYYCARAATVTRWFAYWGQGTLVTVSA
VL: DIQMNQSPSSLSASLGDTITITCHASYNINVWLTWYQQKPGNIPKLLIYKASKLHTGVPSRFSGSGSGTGFTLTISSLQPEDIATYYCQQGQSYPLTFGGGTKLEIKR
notes: also called MJ9-1分泌的单克隆抗体; 第一单克隆抗体
For B1, the binding result in test [1] and in test [2] was “binds” in each case.

B2: 克隆号为MJ9-4的杂交瘤细胞(CGMCC No.23016)分泌的抗FGL1单克隆抗体 (antibody, mouse IgG1, kappa, V domains shown)
VH: EVKLQQSGAELAKPGASVKMSCKASGYIFTGGWMHWVKQRPGQGLEWIGYINPSTDGTDYNQKFEDKATLTADKSSSTAYMQLSSLTSEDSAVYYCAREGYYGSSPYFDYWGQGTTLTVSS
VL: DIVITQTPATLSVTPGDSVSLSCRASQSVSNNLHWYQQKSHESPRLLIKYVSQSISGIPSRFSGSGSGTDFTLSINSVETEDFGMYFCQQSNSWPLYTFGGGTKLEIKR
notes: also called MJ9-4分泌的单克隆抗体; 第二单克隆抗体
In the case of B2, the binding result in test [3] and in test [1] was “binds” throughout.

For the origin of these results see patent CN114075552A (MEDX TRANSLATIONAL MEDICINE CO LTD, dated 2022).
